Reference: patent US12583888B2, “Bi-specific extracellular matrix binding peptides and methods of use thereof” (University of Tartu, priority 2019, dated 2026)
No end group written: not given here.

Assays:
[1] = biological target: T1, fibronectin EDB-domain (Homo sapiens, UniProt P02751); assay: PL3 phage binding to fibronectin EDB-domain
T1 construct: made in house; host or cells: E. coli BL21 Rosetta 2 (DE3) pLysS
Excerpt: The recovered phage was tittered and amplified for a subsequent round of selection. […] RPARPAR phage on NRP-1-coated beads was used as a positive control (Teesalu et al., 2009). Phage clones displaying heptaglycine peptide (GGGGGGG, G7 (SEQ ID NO:20)) or insert less phage clones were used as negative controls.

[2] = system: U87-MG glioblastoma; conditions: i.v. equimolar mix, 2 h circulation
Excerpt: (§1) In vivo play-off was used to evaluate systemic homing of peptide phage to xenograft tumor models. The in vitro selected candidate TNC-C binding peptides, phages displaying published tumor homing peptides, and control peptides were amplified and purified by precipitation with PEG-8000 (Sigma-Aldrich, St. Louis, MO, USA), followed by CsCl2 gradient ultracentrifugation and dialysis. The amplified phage peptides were pooled in equimolar quantities, and injected intravenously (final 1×10^10 pfu in 200 μl PBS) in tumor-bearing mice for two hour circulation, after which mice were anesthetized with 2.5% avertin and intracardially perfused with DMEM intracardially. The tumors and organs were collected in lysogeny broth (LB)+1% NP40, and the tissues were homogenized using a hand-held homogenizer for phage peptide rescue. Phages in the tissue lysates were amplified in E. coli, purified by precipitation with PEG-8000 and DNA was extracted using a DNA extraction kit (High Pure PCR Template Preparation Kit; Roche, Basel, Switzerland). Next-generation sequencing of phage genomic DNA evaluated the representation of each phage in input mixture, in tumor and control organs with Ion Torrent system (Thermo Fisher Scientific, Waltham, MA, USA). The next generation deep sequencing of phage library was done using Ion Torrent according to the manufacturer's protocol with slight modification. The FASTQ data from Ion Torrent was processed by a custom python script that identified the barcodes, constant flanking residues, and extracted the reads of the correct length.

[3] = system: PC3 prostate carcinoma xenografts; conditions: i.v. equimolar mix, 2 h circulation
Excerpt: as §1

[4] = system: normal brain; conditions: i.v. equimolar mix, 2 h circulation
Excerpt: as §1

[5] = system: P13 tumor; conditions: i.v. equimolar mix, 2 h circulation
Excerpt: as §1

[6] = system: WT-GBM tumor; conditions: i.v. equimolar mix, 2 h circulation
Excerpt: as §1

[7] = system: P3 stem cell-like tumor; conditions: i.v. equimolar mix, 2 h circulation
Excerpt: as §1

[8] = system: M21 cells; assay: Cell binding and internalization of CF555-labeled AgNPs; type: cell-based; conditions: NRP-1-negative M21, 1 h incubation
Experimental: (§2) U87-MG, PPC1, and M21 cells cultured on glass coverslips were incubated with CF555-labeled AgNPs at 37° C. for 1 hour, followed by washing with medium to remove background AgNPs. Etching solution freshly diluted from 0.2 M stock solutions of Na2S2O3 and K3Fe(CN)6 to 10 mM working concentration in PBS was applied to cells for 3 minutes, followed by PBS washes. The cells on coverslips were fixed with −20° C. methanol for 1 minute. The cell membrane was visualized by staining with Alexa Fluor 488-labeled wheat germ agglutinin (WGA) at 1:1000 at RT for 1 h. […] Fluoromount-G (Electron Microscopy Sciences) medium was used to mount the coverslips on microscope slides for confocal imaging.

[9] = system: U87-MG cells; assay: as above; type: cell-based, human; conditions: NRP-1-positive U87-MG, 1 h incubation
Experimental: as §2

[10] = system: U87-MG xenograft; assay: In vivo fluorescence imaging with the IVIS Spectrum system; set-up: species or system mice
Experimental: Live imaging of PL3 peptide tumor homing was assessed by in vivo fluorescence imaging with the IVIS Spectrum imaging system (PerkinElmer, Waltham, MA) in U87-MG xenograft mice model (Male, 18-20 weeks of age). AgNPs with CF647 dye-labeled neutravidin coating was functionalized with biotinylated PL3 peptide (AgNP-PL3) or control biotin (AgNP). AgNP PL3 and AgNP particles were injected intravenously into the mice. For assessment of tumor PL3 targeted delivery and homing by IVIS, mice were placed in a dark imaging chamber under isoflurane anesthesia, and imaged with the following parameters. Specific excitation filter, 650 nm; emission filter, 665 nm; auto exposure time; binning, medium; field of view, 12; f/stop, 2; open filter. The images were captured at pre-injection (0 hours) and five-hour post-injection. The signal was expressed in total Radiant Efficiency [p/s]/[μW/cm^2]. The regions of interest (ROIs) were drawn covering the whole tumor in each mouse after tissue background correction, and radiant efficiency signal was quantitated. An automated spectral unmixing algorithm was used, images were analyzed by using Living Image 4.4 software (Caliper Life Sciences, Hopkinton, MA). Three animals per experimental group were analyzed. For the receptor blocking studies, PL3-AgNP injection was preceded by systemic pre-injection of blocking TNC-C and/or NRP1 antibodies (30 μg/mouse) 15 minutes prior to injection of the AgNPs.

[11] = system: PPC1 cells; assay: Cell binding and internalization of CF555-labeled AgNPs; type: cell-based; conditions: NRP-1-positive PPC1, 1 h incubation
Experimental: as §2

T1 sequence (P02751 with tags, fused parts or gaps): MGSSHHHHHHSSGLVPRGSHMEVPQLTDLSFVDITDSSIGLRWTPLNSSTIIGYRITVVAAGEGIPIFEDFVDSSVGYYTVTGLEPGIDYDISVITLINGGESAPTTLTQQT

Substance: AGRGRLVR [PL3]
- binding to fibronectin EDB-domain [1]: did not bind
- Representation of phage in tumors (fold G7 control phage), U87-MG [2]: 2.1 fold
- Representation of phage in tumors (fold G7 control phage), PC3 [3]: 3.9 fold
- Representation of phage in control brain tissue (fold G7 control phage), Norm. brain [4]: 0.4 fold
- Representation of phage in tumors (fold G7 control phage), P13 [5]: 4.7 fold
- Representation of phage in tumors (fold G7 control phage), WT-GBM [6]: 24.1 fold
- Representation of phage in tumors (fold G7 control phage), P3 SCL [7]: 2.1 fold
- cellular uptake [8]: low background-like uptake

Substance: PL3-AgNPs: dye-labeled neutravidin-coated silver nanoparticles functionalized with biotinylated PL3 peptide (AGRGRLVR; also: biotinylated, bound to dye-labeled neutravidin-coated silver nanoparticles)
- cellular uptake [9]: robustly endocytosed with perinuclear accumulation
- accumulation in glioma lesions more than control non-peptide CF647-AgNP ([10]; 5 hours, i.v.): ~10 fold
- tumor homing on coadministration with blocking antibodies ([10]; cocktail of both antibodies): almost completely inhibited the tumor accumulation
- tumor homing on coadministration with blocking antibodies ([10]; rabbit polyclonal antibodies against either TNC-C or NRP-1): decrease in tumor homing
- cellular uptake [11]: robustly endocytosed with perinuclear accumulation
